Data as given in the supplement of paper PMC9170038.

Tested on: MS2 coat protein
Assay: apparent KD of MS2 coat protein; designed switch direction (-1 OFF switch, 1 ON switch): 1; higher = weaker reporter binding
In short: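 Each step of the titration lasted 0.8–1.5 h at the lowest concentration and 10–20 min at the highest. The protein, SNAP-549-labelled MS2 coat protein, went from 0.7 or 1.5 nM doubling to 3 µM over RNA switches transcribed on Illumina chips by stalled E. coli RNA polymerase. Normalised cluster fluorescence was curve-fitted, and the per-design median over clusters is given as apparent KD.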

[1] = input ligand: microRNA oligo, concentration not stated
[2] = Eterna round: R95, input ligand: FMN 200 uM
[3] = Eterna round: R95, input ligand: microRNA oligo, concentration not stated
[4] = Eterna round: R95, input ligand: none

## CGAAAGAAGCGAGGAUAUGCAGAGGAUCACCCUGCAGAAGGCGCAAAAGCGAGGAUAUGCAGAGGAUCACCCUGCAGAAGGCGC [pwkr ssNG DX.32] (Eterna round: R96, puzzle: Same State NG 1)
Input ligand: FMN 200 uM
  apparent KD of MS2 coat protein: 0.0202 µM
[1]
  apparent KD of MS2 coat protein: 0.0205 µM
Input ligand: none
  apparent KD of MS2 coat protein: 0.0181 µM

## CGAACACGUUGAGGAUAUGCAGAGGAUCACCCUGUAGAAGGCAACAGAUGAGGAUAUGCAGAGGAUCACCCUGUAGAAGGCAAC [pwkr ssNG DX.5] (Eterna round: R96, puzzle: Same State NG 1)
Input ligand: FMN 200 uM
  apparent KD of MS2 coat protein: 0.0543 µM
[1]
  apparent KD of MS2 coat protein: 0.0686 µM
Input ligand: none
  apparent KD of MS2 coat protein: 0.116 µM

## CGACACACGGCAGGAUAUCGAUUCCAAAGGAAUCGAGAAGGGCCUCAUGUCGUGGAAACGUGACAUGAGGAUCACCCAUGUCGC [Omei SS(NG)1 Cv17] (Eterna round: R96, puzzle: Same State NG 1)
Input ligand: FMN 200 uM
  apparent KD of MS2 coat protein: 0.0172 µM
[1]
  apparent KD of MS2 coat protein: 0.011 µM
Input ligand: none
  apparent KD of MS2 coat protein: 0.0169 µM

## CGACACACGGCAGGAUAUCGAUUCCAAAGGAAUCGAGAAGGGCCUCAUGUCGUGGAAACGUGACAUGAGGAUCACCCAUGUUGC [Omei SS(NG)1 Cv18] (Eterna round: R96, puzzle: Same State NG 1)
Input ligand: FMN 200 uM
  apparent KD of MS2 coat protein: 0.0268 µM
[1]
  apparent KD of MS2 coat protein: 0.0116 µM
Input ligand: none
  apparent KD of MS2 coat protein: 0.0246 µM

## CGAUACACGGCAGGAUAUCGAUUCCAAAGGAAUCGAGAAGGGCCUCAUGUCGUGGAAACGUGACAUGAGGAUCACCCAUGUUGC [Omei SS(NG)1 Cv20] (Eterna round: R96, puzzle: Same State NG 1)
Input ligand: FMN 200 uM
  apparent KD of MS2 coat protein: 0.0844 µM
[1]
  apparent KD of MS2 coat protein: 0.0361 µM
Input ligand: none
  apparent KD of MS2 coat protein: 0.0554 µM

## CGAUGAUACUUAGGAAGAAGAGUUGAGGUACAUGAGGAUCACCCAUGUCGGAGCUUUUUGCUCGUCAUGAACAGGAA [JR_SHM208a_Sub007] (puzzle: Sensor for hsa-mir-208a)
[2]
  apparent KD of MS2 coat protein: 0.0652 µM
[3]
  apparent KD of MS2 coat protein: 0.0348 µM
[4]
  apparent KD of MS2 coat protein: 0.0795 µM

## CGAUUCGCCAGUACAUGAGGAUCACCCAUGUAGAGACCAGUUUAGGAUAUCUUUGCGACGUGCUGAGAGAAGGGAAUAUGGAGC [Eternabot solution 45] (Eterna round: R96, puzzle: Same State NG 3)
Input ligand: FMN 200 uM
  apparent KD of MS2 coat protein: 0.0331 µM
[1]
  apparent KD of MS2 coat protein: 0.0275 µM
Input ligand: none
  apparent KD of MS2 coat protein: 0.0374 µM

## CGCAUCCUUGUUACAUGAGGAUCACCCAUGUUUUCGAGUGGAGAGGAUAUCGUAACAGUAUUUUUCGAGAAGGCUCUAUAGUUU [JR_SSNG3_Sub080] (Eterna round: R96, puzzle: Same State NG 3)
Input ligand: FMN 200 uM
  apparent KD of MS2 coat protein: 0.0417 µM
[1]
  apparent KD of MS2 coat protein: 0.0376 µM
Input ligand: none
  apparent KD of MS2 coat protein: 0.0569 µM

## CGCCAGAGAACAGGAUAUGGGCCGCAGCCUAUGGGCCGCGAACUCACAUGAGGAUCACCCAUGUCCCAGAAGGGUUCCUGGCUG [Tiusonon] (Eterna round: R96, puzzle: Same State NG 2)
Input ligand: FMN 200 uM
  apparent KD of MS2 coat protein: 0.154 µM
[1]
  apparent KD of MS2 coat protein: 0.596 µM
Input ligand: none
  apparent KD of MS2 coat protein: 2.07 µM

## CGCCGACAUGAGGAUCACCCAUGUCACAACUGGUCAGGAUAUGGUAUGAUUUGGCUAUUGCCAGAAGGGACCUCAG [JR_SS001_Sub712] (Eterna round: R96, puzzle: Same State 1)
Input ligand: FMN 200 uM
  apparent KD of MS2 coat protein: 0.0224 µM
[1]
  apparent KD of MS2 coat protein: 0.0288 µM
Input ligand: none
  apparent KD of MS2 coat protein: 0.0306 µM

## CGCUGUCACGCAGGAUAUGCAUUGGAUUACAAUGCAGAAGGGCGAUUACAUGAGGAUCACCCAUGUGUAGACAGUGAAGAAGAG [MOD JMF Solution 3] (Eterna round: R96, puzzle: Same State NG 1)
Input ligand: FMN 200 uM
  apparent KD of MS2 coat protein: 0.0324 µM
[1]
  apparent KD of MS2 coat protein: 0.271 µM
Input ligand: none
  apparent KD of MS2 coat protein: 0.386 µM

## CGGAGACGUCAAGGAUAUGCUACCGUUUCGGUAGCAGAAGGUGAUCACAUGAGGAUCACCCAUGUAUGCAUGCGUGAGCGUGCU [JL SSNG1 3.51] (Eterna round: R96, puzzle: Same State NG 1)
Input ligand: FMN 200 uM
  apparent KD of MS2 coat protein: 0.125 µM
[1]
  apparent KD of MS2 coat protein: 0.0992 µM
Input ligand: none
  apparent KD of MS2 coat protein: 0.0211 µM

## CGGCGCUGUCGAGAGGAUAUGCGGUGAUGGACAUGAGGAUCACCCAUGUUAGCGAUAGCAUCACGGUAGAAGGCUCUACGGCUGG [Soteed Omei mod 20] (puzzle: Same State 2)
[2]
  apparent KD of MS2 coat protein: 0.0107 µM
[3]
  apparent KD of MS2 coat protein: 0.0186 µM
[4]
  apparent KD of MS2 coat protein: 0.0262 µM

## CGGCGCUGUCGAGAGGAUAUGCGGUGAUGGACAUGAGGAUCACCCAUGUUAGCGAUAGCAUCACGGUAGAAGGCUCUACGGCUUG [Soteed Omei mod 21] (puzzle: Same State 2)
[3]
  apparent KD of MS2 coat protein: 0.031 µM

## CGGGACAUGAGGAUCACCCAUGUGCCGAAAGGCACAAGAACGCAGGAUAUAGGGCAAAGACAGCCCUAGAAGGGUGACCUUGUG [Tiesralabe] (Eterna round: R96, puzzle: Same State NG 3)
Input ligand: FMN 200 uM
  apparent KD of MS2 coat protein: 0.197 µM
[1]
  apparent KD of MS2 coat protein: 0.0213 µM
Input ligand: none
  apparent KD of MS2 coat protein: 0.117 µM

## CGGGUACAUGAGGAUCACCCAUGUUGGAGUAAUGCAGGAUAUGUGGGACGAGGUUAUAAAACAGAAGGGCAAGGAG [JR_SS!_Sub011] (puzzle: Same State 1)
[2]
  apparent KD of MS2 coat protein: 0.0535 µM
[3]
  apparent KD of MS2 coat protein: 0.0629 µM
[4]
  apparent KD of MS2 coat protein: 0.0672 µM

## CGGUGUGAGAAAGGAUAUGUUCGCUAGUCGCGAGCAGAAGGUUCUGCGCGCUGCUAUACGAACAUGAGGAUCACCCAUGUAAAA [Laqu] (Eterna round: R96, puzzle: Same State NG 1)
Input ligand: FMN 200 uM
  apparent KD of MS2 coat protein: 0.13 µM
[1]
  apparent KD of MS2 coat protein: 0.0118 µM
Input ligand: none
  apparent KD of MS2 coat protein: 0.0692 µM

## CGUAGGUAGCUGGAGGAUAUCCGAGUGGUAACAUGAGGAUCACCCAUGUGAUGAAAGGAACAUGAGGAGAAGGCUAGCUGCCUGC [JL-ss2-3.11 JL mod] (puzzle: Same State 2)
[2]
  apparent KD of MS2 coat protein: 0.0154 µM
[3]
  apparent KD of MS2 coat protein: 0.029 µM
[4]
  apparent KD of MS2 coat protein: 0.0309 µM

## CGUAGGUAGCUGGAGGAUAUUCGAGUGGUAACAUGAGGAUCACCCAUGUGGAGUUAGUUACAUGAGGAGAAGGCUAGCUGCCUGC [JL-ss2-3.17 JL mod] (puzzle: Same State 2)
[2]
  apparent KD of MS2 coat protein: 0.0367 µM
[3]
  apparent KD of MS2 coat protein: 0.061 µM
[4]
  apparent KD of MS2 coat protein: 0.0745 µM

## CGUAGGUAGCUGGAGGAUAUUCGAGUGGUAACAUGAGGAUCACCCAUGUGGAGUUAUUUACAUGAGGAGAAGGCUAGCUGCCUGC [JL-ss2-3.16 JL mod] (puzzle: Same State 2)
[2]
  apparent KD of MS2 coat protein: 0.0143 µM
[3]
  apparent KD of MS2 coat protein: 0.107 µM
[4]
  apparent KD of MS2 coat protein: 0.136 µM

## CGUAGGUAGCUGGAGGAUAUUCGAGUGGUAACAUGAGGAUCACCCAUGUGUUGAGAGGUACAUGAGGAGAAGGCUAGCUGCCUGC (puzzle: Same State 2)
[2]
  apparent KD of MS2 coat protein: 0.0176 µM
[3]
  apparent KD of MS2 coat protein: 0.0582 µM
[4]
  apparent KD of MS2 coat protein: 0.0751 µM
